# Assay results taken from patent US7220822 (OHIO STATE UNIVERSITY, dated 2007).
# B1: L-CD28 (free L CD28 peptide mimetic) (peptide)
# peptide: H-KIEFMYPPPYLDNERSNGTI-OH
# notes: also called Free L peptide
# Target: T1, CD80-Ig (extracellular domain of CD80 fused with the constant region of mouse IgG1 heavy chain) (mouse)
# T1 construct: extracellular domain; also called B7-1
# Assay: SPR (BIACORE), direct binding to immobilized CD80-Ig, linear regression plot
# Procedure: Binding experiments were performed by surface plasmon resonance (SPR) on an instrument sold under the trademark BIACORE™ from Pharmacia Biosensor (Uppasala, Sweden). All experiments were performed at 37° C. using HBS-EP buffer (25 mM Hepes, pH7.4, […], 3.4 mM EDTA and, 005% surfactant P20) supplied by Pharmacia Biosensor.
# CD80-Ig (extracellular domain of CD80 fused with the constant region of mouse IgG1 heavy chain) at 35 µg/ml in 10 mM sodium acetate buffer, pH 4.2, was coupled to a research grade CM 5 sensor chip using a standard amine coupling procedure with the following modifications (38). To reduce the immobilization level of the ligand, the surface was activated for 3 (instead of 7) minutes with N-hydroxysuccinamide and […]. […] Following coupling, noncovalently bound ligand was removed by washing twice with 5 mM NaOH.
# Data for both k_a and k_d are quite consistent over the entire range of concentrations used. The difference between experimental and calculated data for both EL CD28 and RI CD28 peptide mimetics estimated by Chi^2 value is low being close to the noise level of the instrument. A linear regression plot of the rate of change in the response against response units was plotted using these values of k_a and k_d for each CD28 peptide analyte.
binder,measurement,value
B1,Kd,2440 nM
